Test results taken from patent US20110262445A1 (CEPHALON AUSTRALIA, published 2011).
Like-named read-outs stand apart in the source and are kept apart here.

T1: human IL-12 (human, UniProt P29460 23-328; P29459 23-219)
T1 construct: Recombinant (Peprotech); FLAG-tagged IL-12 in the flow cytometry assays, biotinylated in the IL-12Rβ2 assay; also called hIL-12
T1 sequence 1: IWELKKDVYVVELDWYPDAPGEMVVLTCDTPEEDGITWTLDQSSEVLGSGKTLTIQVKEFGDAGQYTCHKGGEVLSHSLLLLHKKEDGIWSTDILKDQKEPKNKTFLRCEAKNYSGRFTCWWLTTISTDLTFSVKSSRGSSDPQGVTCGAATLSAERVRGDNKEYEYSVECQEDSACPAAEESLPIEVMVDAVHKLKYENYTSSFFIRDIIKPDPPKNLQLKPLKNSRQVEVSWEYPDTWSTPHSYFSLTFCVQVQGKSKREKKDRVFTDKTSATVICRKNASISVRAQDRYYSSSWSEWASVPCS
T1 sequence 2: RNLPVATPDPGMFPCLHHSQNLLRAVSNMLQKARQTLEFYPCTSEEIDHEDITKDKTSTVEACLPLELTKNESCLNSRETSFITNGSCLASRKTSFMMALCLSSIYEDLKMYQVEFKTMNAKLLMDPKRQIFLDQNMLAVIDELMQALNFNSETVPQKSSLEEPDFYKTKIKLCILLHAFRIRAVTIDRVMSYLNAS

T2: human IL-23 (human, UniProt P29460 23-328; Q9NPF7 20-189)
T2 construct: Recombinant (Ebioscience); HIS-tagged in flow cytometry, biotinylated in some assays; also called hIL-23; rhIL-23
T2 sequence 1: T1 sequence 1
T2 sequence 2: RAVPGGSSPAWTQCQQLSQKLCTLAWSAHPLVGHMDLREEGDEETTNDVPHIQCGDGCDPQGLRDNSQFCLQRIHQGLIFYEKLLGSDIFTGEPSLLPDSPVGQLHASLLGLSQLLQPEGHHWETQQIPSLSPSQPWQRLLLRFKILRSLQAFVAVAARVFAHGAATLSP

T3: human IL-12p40 (human, UniProt P29460 23-328)
T3 construct: p40 monomer; also called p40 subunit
T3 sequence: T1 sequence 1

B1: PMA204 (antibody, V domains shown)
VH: EVQLQQSGADLVRSGASIKLSCTASGFNIKDYYMHWVKQRPEQGLEWIGWIDPENGDTEYAPKFQGKATMTADTSSNTAYLQLSSLTSEDTAVYYCNACKELRYFDVWGAGTTVTVSS
VL: DIVLTQSPATLSVTPGDSVSLSCRASQSISINLHWYQQKSHESPRLLIKFASQSISGIPSRFSGYGSGTDFTLSINSVETEDFGRYFCQQSNSWPLTFGAGTKLELKR
notes: Murine hybridoma antibody, murine IgG1kappa
B2: Antibody 1 (antibody, human IgG1, kappa, V domains shown)
VH: B1 VH
VL: B1 VL
notes: Chimeric PMA204, human IgG1/kappa
B3: PMA202 (antibody, V domains shown)
VH: QIQLVQSGPELKKPGETVKISCKASGYTFTNYGMNWVKQAPGKGLKWMGWINTYTGEPTYADDFKGRFAFSLETSASTAYLQINNFKNEDTATYFCARSLSTMITTTFAYWGQGTLVTVSS
VL: SIVMTQTPKFLLVSAGDRVTITCKASQSVSNDVAWYQQKPGQSPKLLIYYASNRYTGVPDRFTGSGYGTDFTFTISTVQAEDLAVYFCQQDYSSPYTFGGGTKLEIKR
notes: as for B1
B4: Antibody 136 (antibody, human IgG1, kappa, V domains shown)
VH: EVQLVQSGAEVKKPGATVKISCKASGYTFSDYYLHWVRQAPEKGLEWMGWIDPENGDTEYAPKFQGRVTITADTSTDTGYLELSSLRSEDTAVYYCAANKELRYFDVWGQGTLVTVSS
VL: DIQMTQSPSSVSASVGDRVTITCRASQSISINLHWYQQKPGKAPKLLIYFASQSISGVPSRFSGSGSGTDFSLTINSLQTEDFATYYCQQSNSFPLTFGGGTKVEIKR
notes: Humanized PMA204 (1RZ7 framework)

Key:
human IL-12 [1] = biological target: T1, human IL-12; experiment: ELISA, coated IL-12
Description: (§1) IL-12 (Peprotech), IL-23 (Ebioscience™), IL-12p40 (Ebioscience™) or IL-12p80 (Peprotech), was diluted to 1 μg/mL in carbonate coating buffer ([…] pH 9.6) and coated onto a 96 well plate (Nunc™, Maxisorp™) overnight at 4° C. The plate was then washed three times with wash buffer (0.01M PBS pH 7.2, 0.05% Tween-20) and then three times with 0.01M PBS pH 7.2. The wells were then blocked by adding 200 μl of blocking buffer (1% w/v BSA in 0.01 M PBS pH 7.2) to each well and incubating the plate at 25° C. for 1 hour. The antibody was diluted in antibody diluent (1% w/v BSA, 0.05% Tween-20 in 0.01M PBS pH 7.2) sufficient to generate a titration curve. The wells were incubated with the antibody for 1 hour at 25° C. The plate was then washed as previously described. Goat anti-human immunoglobulin G (H+L) antibody HRP conjugate (Zymed®) at 1:2000 in antibody diluent was used to detect bound primary antibody. Goat anti-murine immunoglobulin antibody HRP conjugate (Dako) at 1:2000 in antibody diluent was used to detect bound murine antibody. After incubation at 25° C. for 1 hour the plate was washed again as previously described. TMB substrate solution (Zymed®) was added to each well and the colour allowed to develop; the reaction was terminated by adding 1M HCl to the wells. The absorbance of each well was determined at 450 nm (ref. 620 nm).

human IL-23 [2] = biological target: T2, human IL-23; experiment: ELISA, coated IL-23
Description: as §1

Antibody 136 [3] = biological target: B4; experiment: SPR control: PMA204 injected over Antibody 136 captured on Protein A, no cytokine
Description: (§2) Protein A (Thermo) was immobilized onto a CM5 sensor chip using a BIAcore 3000. Chimeric or humanized antibody at 5 ug/mL in HBS-P (GE Healthcare) was then injected for 1 min at a flow rate of 20 ul/min. IL-12 or IL-23 was then injected over the surface at 5 ug/mL in HBS-P for 1 min at a flow rate of 20 ul/min. Murine antibody was then injected at 5 ug/mL in HBS-P for 1 min at a flow rate of 20 ul/min. Controls in which IL-12 or IL-23 was replaced with HBS-P, and in which the murine antibody was replaced with HBS-P were also performed. All data was substrated from a control run in which IL-12 or IL-23 or the murine antibody was tested for background binding to the Protein A surface.

human IL-23 [4] = biological target: T2, human IL-23; experiment: neutralization ELISA: IL-23 preincubated with antibody, its binding to coated IL-23R is blocked
How it was run: (§3)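 His-tagged IL-23R made in HEK-293E cells was coated in carbonate buffer overnight at 4° C and blocked with 1% BSA. Biotinylated IL-23 at 50 ng/ml was preincubated with titrated antibody for 2 hours, then added to the wells for 2 hours at 25° C. Detection used Streptavidin HRP 1:5000 and TMB for 15 minutes, stopped with 1M HCl, read at 450 nm (reference 620 nm). IC50 was read off the curve.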

human IL-12 [5] = biological target: T1, human IL-12; experiment: neutralization ELISA: IL-12 preincubated with antibody, its binding to coated IL-12Rβ2/Fc is blocked
How it was run: (§4)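 Wells were coated overnight at 4° C with IL-12Rβ2/Fc chimera at 5 ug/ml in carbonate buffer, then blocked with 1% BSA for 1 hour at 25° C. Titrated antibody was preincubated with biotinylated IL-12 for 2 hours, and the mixture was added to the wells for 2 hours at 25° C before detection with Streptavidin HRP 1:5000 and TMB, with absorbance read at 450 nm (reference 620 nm). The IC50 was taken from the resulting curve.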

human IL-12 [6] = biological target: T1, human IL-12; experiment: SPR, IgG on Protein A
Description: (§5) Using a SPR 3000, Protein A was immobilized onto FC1 and FC2 (or alternatively FC3 and FC4) of a CM5 research grade sensor chip using amine coupling, giving approximately […] RU. FC1 was used a blank throughout the experiments. The experiments were run in HBS-P buffer (SPR). At a flow rate of 20 μl/min, 20 μl of 5 μg/mL of antibody was passed over FC2. IL-12, IL-23 or IL-12p40 (Peprotech) were passed over the surface of FC1 and FC2 at concentrations ranging from 66 nM to 2 nM. Regeneration of the surface was performed using 10 mM Glycine, pH 1.0. The sensorgram data from FC2 was subtracted from FC1 and a buffer only control. The curves were fitted using a 1:1 Langmuir equation to generate the kd, ka and KD values. All curves were fitted with a χ² of less then 2.0 where possible.

human IL-23 [7] = biological target: T2, human IL-23; experiment: SPR, IgG on Protein A
Description: as §5

human IL-12p40 [8] = biological target: T3, human IL-12p40; experiment: SPR, IgG on Protein A
Description: as §5

human IL-12 [9] = biological target: T1, human IL-12; experiment: SPR, IgG on Protein A; remark: listed apart in the source
Description: as §5

human IL-23 [10] = biological target: T2, human IL-23; experiment: SPR, IgG on Protein A; remark: listed apart in the source
Description: as §5

human IL-12p40 [11] = biological target: T3, human IL-12p40; experiment: ELISA, coated IL-12p40
Description: as §1

Antibody 136 [12] = biological target: B4; experiment: SPR control: PMA202 injected over Antibody 136 captured on Protein A, no cytokine
Description: as §2

human IL-12 [13] = biological target: T1, human IL-12; experiment: SPR, IgG on Protein A; remark: listed apart in the source
Description: (§6) Using SPR technology the kₐ and kd and the KD of various humanized antibodies was determined.
as §5

human IL-23 [14] = biological target: T2, human IL-23; experiment: SPR, IgG on Protein A; remark: listed apart in the source
Description: as §6, §5

human IL-12 [15] = biological target: T1, human IL-12; experiment: sandwich ELISA: IL-12 held by coated PMA202, Antibody 136 titrated, anti-human Fc-HRP
How it was run: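 Capture antibody at 1 μg/mL was coated overnight at 4° C and blocked with 1% BSA. IL-12 at 0.5 μg/ml was bound for 1 hour at 25° C, followed by half-log serial dilutions of test antibody for 1 hour. Bound antibody was detected with goat anti-human IgG Fc-HRP (1:2000) and TMB, stopped with 1 M HCl, and optical density read at 450 nm (reference 620 nm). EC50 was read off the curve.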

human IL-23 [16] = biological target: T2, human IL-23; experiment: sandwich ELISA: IL-23 held by coated PMA202, Antibody 136 titrated, anti-human Fc-HRP
human IL-23 [17] = biological target: T2, human IL-23; experiment: neutralization ELISA: IL-23 preincubated with antibody, its binding to coated IL-23R is blocked; remark: listed apart in the source
How it was run: as §3

human IL-12 [18] = biological target: T1, human IL-12; experiment: neutralization ELISA: IL-12 preincubated with antibody, its binding to coated IL-12Rβ2/Fc is blocked; remark: listed apart in the source
How it was run: as §4

Binder: B1
EC50 (read off the curve) (human IL-12 [1]): ~0.02 µg/mL | EC50 (read off the curve) (human IL-23 [2]): ~0.01 µg/mL | binding result (Antibody 136 [3]): no binding | IC50 (read off the curve) (human IL-23 [4]): ~0.6 µg/mL | IC50 (read off the curve) (human IL-12 [5]): ~0.2 µg/mL

Binder: B2
Kd (human IL-12 [6]): 0.0477 nM | koff (human IL-12 [6]): 6.45e-05 s⁻¹ | kon (human IL-12 [6]): 1.36e+06 M⁻¹ s⁻¹ | Kd (human IL-23 [7]): 0.0446 nM | koff (human IL-23 [7]): 0.000114 s⁻¹ | kon (human IL-23 [7]): 2.55e+06 M⁻¹ s⁻¹ | Kd (human IL-12p40 [8]): 0.0663 nM | koff (human IL-12p40 [8]): 7.12e-05 s⁻¹ | kon (human IL-12p40 [8]): 1.07e+06 M⁻¹ s⁻¹ | Kd (human IL-12 [9]): 0.0795 nM | koff (human IL-12 [9]): 0.000132 s⁻¹ | kon (human IL-12 [9]): 1.67e+06 M⁻¹ s⁻¹ | Kd (human IL-23 [10]): 0.0513 nM | koff (human IL-23 [10]): 0.000146 s⁻¹ | kon (human IL-23 [10]): 2.85e+06 M⁻¹ s⁻¹ | EC50 (read off the curve) (human IL-12p40 [11]): ~0.03 µg/mL | IC50 (read off the curve) (human IL-23 [4]): ~1 µg/mL | IC50 (read off the curve) (human IL-12 [5]): ~0.4 µg/mL

Binder: B3
binding result (Antibody 136 [12]): no binding

Binder: B4
Kd (human IL-12 [13]): 0.197 nM | koff (human IL-12 [13]): 0.000997 s⁻¹ | kon (human IL-12 [13]): 5.05e+06 M⁻¹ s⁻¹ | Kd (human IL-23 [14]): 0.105 nM | koff (human IL-23 [14]): 0.000795 s⁻¹ | kon (human IL-23 [14]): 7.55e+06 M⁻¹ s⁻¹ | EC50 (read off the curve) (human IL-12 [15]): ~0.1 µg/mL | EC50 (read off the curve) (human IL-23 [16]): ~0.06 µg/mL | IC50 (read off the curve) (human IL-23 [17]): ~1 µg/mL | IC50 (read off the curve) (human IL-12 [18]): ~0.4 µg/mL
